B1: Mutant of the C-terminal part and the histidine tag, SEQ ID NO: 18 (C-terminal part removed, histidine tag modified) (other)
chain: MHHHHHHGAMARKELSSLEELFRHYGVRYMTLTKMVEMGFTVNTLVNMTEQELDDVIRTLVDIYRVDLLVGEKYGIKSAVRAEKRR
B2: Mutant of the C-terminal part and histidine tag, SEQ ID NO: 27 (other)
chain: MHHHHHHGAMARKELSSLEELFRHYGVRYMTLTKMVEMGFTVNTLVNMTEQELDDVIRTLVDIYRVDLLVGEKYGIKSAVRAEKRRLDELERKKGGSHHHHHH
B3: Mutant with a self-reducing sequence at the C-terminal part, SEQ ID NO: 29 (C-terminal part and histidine tag modified) (other)
chain: MKHHHHHHPGAMARKELSSLEELFRHYGVRYMTLTKMVEMGFTVNTLVNMTEQELDDVIRTLVDIYRVDLLVGEKYGIKSAVRAEKRRLDELERKKGGSTGTSVLIATPGV
B4: Mutant with a self-reducing sequence at the C-terminal part, SEQ ID NO: 31 (C-terminal part and histidine tag modified) (other)
chain: MKHHHHHHPGAMARKELSSLEELFRHYGVRYMTLTKMVEMGFTVNTLVNMTEQELDDVIRTLVDIYRVDLLVGEKYGIKSAVRAEKRRLDELERKKGGSWAGAKRLVLRRE
B5: Mutant of the C-terminal part and histidine tag, SEQ ID NO: 26 (other)
chain: MHHHHHHGAMARKELSSLEELFRHYGVRYMTLTKMVEMGFTVNTLVNMTEQELDDVIRTLVDIYRVDLLVGEKYGIKSAVRAEKRRLDELERKKGGSC

Biological target: the molecule itself
Assay: self-assembly (homo-oligomerisation) by crystallisation on a substrate

Binding result, binds:
B1
B2
B3
B4
B5

From patent publication US20220380486A1 (COMMISSARIAT A L ENERGIE ATOMIQUE ET AUX ENERGIES …, published 2022)
